Test results taken from patent publication US20220040297A1 (Chugai, published 2022).

Target: CD3ε homodimer protein (human, UniProt P07766 23-126, limits assumed)
Experiment: SPR, immobilized CD3ε homodimer;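 also: biacore T200 surface plasmon resonance at 25 °C, antibody variants flowed as analytes over amine-coupled CD3ε homodimer on a CM4 chip, variant binding amount divided by that of GLS3000 antibody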
Procedure: Each one-amino acid altered form constructed, expressed, and purified in the paragraph (6-2) was evaluated using Biacore T200 (GE Healthcare Japan Corp.). An appropriate amount of CD3ε homodimer protein was immobilized onto Sensor chip CM4 (GE Healthcare Japan Corp.) by the amine coupling method. Then, the antibody having an appropriate concentration was injected thereto as an analyte and allowed to interact with the CD3ε homodimer protein on the sensor chip. Then, the sensor chip was regenerated by the injection of 10 mmol/L glycine-HCl (pH 1.5). The assay was conducted at 25° C., and HBS-EP+ (GE Healthcare Japan Corp.) was used as a running buffer. […] Each parameter was calculated using Biacore T200 Evaluation Software (GE Healthcare Japan Corp.).
Specifically, when the amount of the GLS3000-containing antibody bound was defined as X and the amount of the L chain one-amino acid altered form bound was defined as Y, a value of Z (ratio of amounts bound)=Y/X was used.

CD3ε homodimer protein, sequence (P07766 23-126 limits assumed): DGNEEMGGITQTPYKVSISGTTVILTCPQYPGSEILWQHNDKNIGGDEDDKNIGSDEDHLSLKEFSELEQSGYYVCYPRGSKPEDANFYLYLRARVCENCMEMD

| Binder | ratio of amounts bound (vs GLS3000) |
| --- | --- |
| GLS3000 N53M (antibody, name in Kabat numbering, V domains shown, one-arm format as m2) VH: QVQLVESGGGVVQPGRSLRLSCAASGFTFSNAWMHWVRQAPGKGLEWVAQIKAKSNNYATYYAESVKGRFTISRDDSKNSLYLQMNSLKTEDTAVYYCRYVHYGAYYGVDAWGQGTTVTVSS VL: DIVMTQSPLSLPVTPGEPASISCRSSQSLVHSNRNTYLHWYQQKPGQAPRLLIYKVSMRFSGVPDRFSGSGSGTDFTLKISRVEAEDVGVYYCGQGTQVPYTFGQGTKLEIK | 0.62 |
| GLS3000 N53P (antibody, name in Kabat numbering, V domains shown, one-arm format as m2) VH: QVQLVESGGGVVQPGRSLRLSCAASGFTFSNAWMHWVRQAPGKGLEWVAQIKAKSNNYATYYAESVKGRFTISRDDSKNSLYLQMNSLKTEDTAVYYCRYVHYGAYYGVDAWGQGTTVTVSS VL: DIVMTQSPLSLPVTPGEPASISCRSSQSLVHSNRNTYLHWYQQKPGQAPRLLIYKVSPRFSGVPDRFSGSGSGTDFTLKISRVEAEDVGVYYCGQGTQVPYTFGQGTKLEIK | 0.81 |
| GLS3000 N53Q (antibody, name in Kabat numbering, V domains shown, one-arm format as m2) VH: QVQLVESGGGVVQPGRSLRLSCAASGFTFSNAWMHWVRQAPGKGLEWVAQIKAKSNNYATYYAESVKGRFTISRDDSKNSLYLQMNSLKTEDTAVYYCRYVHYGAYYGVDAWGQGTTVTVSS VL: DIVMTQSPLSLPVTPGEPASISCRSSQSLVHSNRNTYLHWYQQKPGQAPRLLIYKVSQRFSGVPDRFSGSGSGTDFTLKISRVEAEDVGVYYCGQGTQVPYTFGQGTKLEIK | 0.77 |
| GLS3000 N53R (antibody, name in Kabat numbering, V domains shown, one-arm format as m2) VH: QVQLVESGGGVVQPGRSLRLSCAASGFTFSNAWMHWVRQAPGKGLEWVAQIKAKSNNYATYYAESVKGRFTISRDDSKNSLYLQMNSLKTEDTAVYYCRYVHYGAYYGVDAWGQGTTVTVSS VL: DIVMTQSPLSLPVTPGEPASISCRSSQSLVHSNRNTYLHWYQQKPGQAPRLLIYKVSRRFSGVPDRFSGSGSGTDFTLKISRVEAEDVGVYYCGQGTQVPYTFGQGTKLEIK | 1.58 |
| GLS3000 N53S (antibody, name in Kabat numbering, V domains shown, one-arm format as m2) VH: QVQLVESGGGVVQPGRSLRLSCAASGFTFSNAWMHWVRQAPGKGLEWVAQIKAKSNNYATYYAESVKGRFTISRDDSKNSLYLQMNSLKTEDTAVYYCRYVHYGAYYGVDAWGQGTTVTVSS VL: DIVMTQSPLSLPVTPGEPASISCRSSQSLVHSNRNTYLHWYQQKPGQAPRLLIYKVSSRFSGVPDRFSGSGSGTDFTLKISRVEAEDVGVYYCGQGTQVPYTFGQGTKLEIK | 0.69 |
| GLS3000 N53T (antibody, name in Kabat numbering, V domains shown, one-arm format as m2) VH: QVQLVESGGGVVQPGRSLRLSCAASGFTFSNAWMHWVRQAPGKGLEWVAQIKAKSNNYATYYAESVKGRFTISRDDSKNSLYLQMNSLKTEDTAVYYCRYVHYGAYYGVDAWGQGTTVTVSS VL: DIVMTQSPLSLPVTPGEPASISCRSSQSLVHSNRNTYLHWYQQKPGQAPRLLIYKVSTRFSGVPDRFSGSGSGTDFTLKISRVEAEDVGVYYCGQGTQVPYTFGQGTKLEIK | 0.56 |
| GLS3000 N53V (antibody, name in Kabat numbering, V domains shown, one-arm format as m2) VH: QVQLVESGGGVVQPGRSLRLSCAASGFTFSNAWMHWVRQAPGKGLEWVAQIKAKSNNYATYYAESVKGRFTISRDDSKNSLYLQMNSLKTEDTAVYYCRYVHYGAYYGVDAWGQGTTVTVSS VL: DIVMTQSPLSLPVTPGEPASISCRSSQSLVHSNRNTYLHWYQQKPGQAPRLLIYKVSVRFSGVPDRFSGSGSGTDFTLKISRVEAEDVGVYYCGQGTQVPYTFGQGTKLEIK | 0.56 |
| GLS3000 N53W (antibody, name in Kabat numbering, V domains shown, one-arm format as m2) VH: QVQLVESGGGVVQPGRSLRLSCAASGFTFSNAWMHWVRQAPGKGLEWVAQIKAKSNNYATYYAESVKGRFTISRDDSKNSLYLQMNSLKTEDTAVYYCRYVHYGAYYGVDAWGQGTTVTVSS VL: DIVMTQSPLSLPVTPGEPASISCRSSQSLVHSNRNTYLHWYQQKPGQAPRLLIYKVSWRFSGVPDRFSGSGSGTDFTLKISRVEAEDVGVYYCGQGTQVPYTFGQGTKLEIK | 0.81 |
| GLS3000 N53Y (antibody, name in Kabat numbering, V domains shown, one-arm format as m2) VH: QVQLVESGGGVVQPGRSLRLSCAASGFTFSNAWMHWVRQAPGKGLEWVAQIKAKSNNYATYYAESVKGRFTISRDDSKNSLYLQMNSLKTEDTAVYYCRYVHYGAYYGVDAWGQGTTVTVSS VL: DIVMTQSPLSLPVTPGEPASISCRSSQSLVHSNRNTYLHWYQQKPGQAPRLLIYKVSYRFSGVPDRFSGSGSGTDFTLKISRVEAEDVGVYYCGQGTQVPYTFGQGTKLEIK | 0.67 |
| GLS3000 P95A (antibody, name in Kabat numbering, V domains shown, one-arm format as m2) VH: QVQLVESGGGVVQPGRSLRLSCAASGFTFSNAWMHWVRQAPGKGLEWVAQIKAKSNNYATYYAESVKGRFTISRDDSKNSLYLQMNSLKTEDTAVYYCRYVHYGAYYGVDAWGQGTTVTVSS VL: DIVMTQSPLSLPVTPGEPASISCRSSQSLVHSNRNTYLHWYQQKPGQAPRLLIYKVSNRFSGVPDRFSGSGSGTDFTLKISRVEAEDVGVYYCGQGTQVAYTFGQGTKLEIK | 0.63 |
| GLS3000 P95D (antibody, name in Kabat numbering, V domains shown, one-arm format as m2) VH: QVQLVESGGGVVQPGRSLRLSCAASGFTFSNAWMHWVRQAPGKGLEWVAQIKAKSNNYATYYAESVKGRFTISRDDSKNSLYLQMNSLKTEDTAVYYCRYVHYGAYYGVDAWGQGTTVTVSS VL: DIVMTQSPLSLPVTPGEPASISCRSSQSLVHSNRNTYLHWYQQKPGQAPRLLIYKVSNRFSGVPDRFSGSGSGTDFTLKISRVEAEDVGVYYCGQGTQVDYTFGQGTKLEIK | 0.24 |
| GLS3000 P95E (antibody, name in Kabat numbering, V domains shown, one-arm format as m2) VH: QVQLVESGGGVVQPGRSLRLSCAASGFTFSNAWMHWVRQAPGKGLEWVAQIKAKSNNYATYYAESVKGRFTISRDDSKNSLYLQMNSLKTEDTAVYYCRYVHYGAYYGVDAWGQGTTVTVSS VL: DIVMTQSPLSLPVTPGEPASISCRSSQSLVHSNRNTYLHWYQQKPGQAPRLLIYKVSNRFSGVPDRFSGSGSGTDFTLKISRVEAEDVGVYYCGQGTQVEYTFGQGTKLEIK | 0.39 |
| GLS3000 P95G (antibody, name in Kabat numbering, V domains shown, one-arm format as m2) VH: QVQLVESGGGVVQPGRSLRLSCAASGFTFSNAWMHWVRQAPGKGLEWVAQIKAKSNNYATYYAESVKGRFTISRDDSKNSLYLQMNSLKTEDTAVYYCRYVHYGAYYGVDAWGQGTTVTVSS VL: DIVMTQSPLSLPVTPGEPASISCRSSQSLVHSNRNTYLHWYQQKPGQAPRLLIYKVSNRFSGVPDRFSGSGSGTDFTLKISRVEAEDVGVYYCGQGTQVGYTFGQGTKLEIK | 0.37 |
| GLS3000 P95L (antibody, name in Kabat numbering, V domains shown, one-arm format as m2) VH: QVQLVESGGGVVQPGRSLRLSCAASGFTFSNAWMHWVRQAPGKGLEWVAQIKAKSNNYATYYAESVKGRFTISRDDSKNSLYLQMNSLKTEDTAVYYCRYVHYGAYYGVDAWGQGTTVTVSS VL: DIVMTQSPLSLPVTPGEPASISCRSSQSLVHSNRNTYLHWYQQKPGQAPRLLIYKVSNRFSGVPDRFSGSGSGTDFTLKISRVEAEDVGVYYCGQGTQVLYTFGQGTKLEIK | 0.24 |
| GLS3000 P95S (antibody, name in Kabat numbering, V domains shown, one-arm format as m2) VH: QVQLVESGGGVVQPGRSLRLSCAASGFTFSNAWMHWVRQAPGKGLEWVAQIKAKSNNYATYYAESVKGRFTISRDDSKNSLYLQMNSLKTEDTAVYYCRYVHYGAYYGVDAWGQGTTVTVSS VL: DIVMTQSPLSLPVTPGEPASISCRSSQSLVHSNRNTYLHWYQQKPGQAPRLLIYKVSNRFSGVPDRFSGSGSGTDFTLKISRVEAEDVGVYYCGQGTQVSYTFGQGTKLEIK | 0.43 |
| GLS3000 Q27D (antibody, name in Kabat numbering, V domains shown, one-arm format as m2) VH: QVQLVESGGGVVQPGRSLRLSCAASGFTFSNAWMHWVRQAPGKGLEWVAQIKAKSNNYATYYAESVKGRFTISRDDSKNSLYLQMNSLKTEDTAVYYCRYVHYGAYYGVDAWGQGTTVTVSS VL: DIVMTQSPLSLPVTPGEPASISCRSSDSLVHSNRNTYLHWYQQKPGQAPRLLIYKVSNRFSGVPDRFSGSGSGTDFTLKISRVEAEDVGVYYCGQGTQVPYTFGQGTKLEIK | 0.85 |
| GLS3000 Q27E (antibody, name in Kabat numbering, V domains shown, one-arm format as m2) VH: QVQLVESGGGVVQPGRSLRLSCAASGFTFSNAWMHWVRQAPGKGLEWVAQIKAKSNNYATYYAESVKGRFTISRDDSKNSLYLQMNSLKTEDTAVYYCRYVHYGAYYGVDAWGQGTTVTVSS VL: DIVMTQSPLSLPVTPGEPASISCRSSESLVHSNRNTYLHWYQQKPGQAPRLLIYKVSNRFSGVPDRFSGSGSGTDFTLKISRVEAEDVGVYYCGQGTQVPYTFGQGTKLEIK | 0.88 |
| GLS3000 Q27L (antibody, name in Kabat numbering, V domains shown, one-arm format as m2) VH: QVQLVESGGGVVQPGRSLRLSCAASGFTFSNAWMHWVRQAPGKGLEWVAQIKAKSNNYATYYAESVKGRFTISRDDSKNSLYLQMNSLKTEDTAVYYCRYVHYGAYYGVDAWGQGTTVTVSS VL: DIVMTQSPLSLPVTPGEPASISCRSSLSLVHSNRNTYLHWYQQKPGQAPRLLIYKVSNRFSGVPDRFSGSGSGTDFTLKISRVEAEDVGVYYCGQGTQVPYTFGQGTKLEIK | 0.92 |
| GLS3000 Q27P (antibody, name in Kabat numbering, V domains shown, one-arm format as m2) VH: QVQLVESGGGVVQPGRSLRLSCAASGFTFSNAWMHWVRQAPGKGLEWVAQIKAKSNNYATYYAESVKGRFTISRDDSKNSLYLQMNSLKTEDTAVYYCRYVHYGAYYGVDAWGQGTTVTVSS VL: DIVMTQSPLSLPVTPGEPASISCRSSPSLVHSNRNTYLHWYQQKPGQAPRLLIYKVSNRFSGVPDRFSGSGSGTDFTLKISRVEAEDVGVYYCGQGTQVPYTFGQGTKLEIK | 0.29 |
| GLS3000 Q27R (antibody, name in Kabat numbering, V domains shown, one-arm format as m2) VH: QVQLVESGGGVVQPGRSLRLSCAASGFTFSNAWMHWVRQAPGKGLEWVAQIKAKSNNYATYYAESVKGRFTISRDDSKNSLYLQMNSLKTEDTAVYYCRYVHYGAYYGVDAWGQGTTVTVSS VL: DIVMTQSPLSLPVTPGEPASISCRSSRSLVHSNRNTYLHWYQQKPGQAPRLLIYKVSNRFSGVPDRFSGSGSGTDFTLKISRVEAEDVGVYYCGQGTQVPYTFGQGTKLEIK | 1.19 |
| GLS3000 Q90A (antibody, name in Kabat numbering, V domains shown, one-arm format as m2) VH: QVQLVESGGGVVQPGRSLRLSCAASGFTFSNAWMHWVRQAPGKGLEWVAQIKAKSNNYATYYAESVKGRFTISRDDSKNSLYLQMNSLKTEDTAVYYCRYVHYGAYYGVDAWGQGTTVTVSS VL: DIVMTQSPLSLPVTPGEPASISCRSSQSLVHSNRNTYLHWYQQKPGQAPRLLIYKVSNRFSGVPDRFSGSGSGTDFTLKISRVEAEDVGVYYCGAGTQVPYTFGQGTKLEIK | 0.5 |
